Assay results: US20080003218A1

Molecular target: FcεRI-bound IgE (human IgE loaded on CHO 3D10 cells expressing FcεRI alpha chain) (human) (UniProt P01854)
Experiment: FACS on IgE-loaded CHO 3D10 cells (FIG. 4)

FcεRI-bound IgE (human IgE loaded on CHO 3D10 cells expressing FcεRI alpha chain) (human), sequence (P01854 whole entry, chain 1 of 2): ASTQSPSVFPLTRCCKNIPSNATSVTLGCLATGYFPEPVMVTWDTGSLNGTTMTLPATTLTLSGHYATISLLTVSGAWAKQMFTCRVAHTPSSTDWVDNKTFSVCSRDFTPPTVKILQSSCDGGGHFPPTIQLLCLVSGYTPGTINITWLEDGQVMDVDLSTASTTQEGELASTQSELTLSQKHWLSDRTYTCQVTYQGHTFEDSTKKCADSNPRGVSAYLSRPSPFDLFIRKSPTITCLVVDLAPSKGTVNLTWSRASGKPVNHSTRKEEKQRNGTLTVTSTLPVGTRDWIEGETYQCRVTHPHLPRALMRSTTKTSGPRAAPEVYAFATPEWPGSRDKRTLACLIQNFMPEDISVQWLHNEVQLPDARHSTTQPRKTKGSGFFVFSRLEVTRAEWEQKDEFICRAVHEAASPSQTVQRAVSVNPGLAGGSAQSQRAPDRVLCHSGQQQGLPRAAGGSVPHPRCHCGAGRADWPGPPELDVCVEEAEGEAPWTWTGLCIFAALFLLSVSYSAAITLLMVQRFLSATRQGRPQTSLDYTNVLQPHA
FcεRI-bound IgE (human IgE loaded on CHO 3D10 cells expressing FcεRI alpha chain) (human), sequence (P12319 26-257, chain 2 of 2, further chain): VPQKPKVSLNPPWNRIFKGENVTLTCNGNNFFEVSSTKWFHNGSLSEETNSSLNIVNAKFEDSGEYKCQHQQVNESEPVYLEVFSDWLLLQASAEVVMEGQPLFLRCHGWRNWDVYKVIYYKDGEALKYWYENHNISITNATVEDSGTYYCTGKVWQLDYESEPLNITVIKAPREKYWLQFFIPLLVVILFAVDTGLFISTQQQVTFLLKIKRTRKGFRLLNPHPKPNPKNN

| mean channel fluorescence at 0.1 µg/ml (mean channel fluorescence) | Substance |
| --- | --- |
| 7.3 | MOPC21 (murine IgG1 control antibody) |
| 6.4 | murine anti-human IgE monoclonal antibody MaE11 |
| 4.7 | humanized mAb 4D5 (human IgG1 control antibody) |
